We go through three variants from IntAct's records for PubMed 31402609.

B1: Palmitoyltransferase ZDHHC5 (Homo sapiens), Q9C0B5 (parent)
chain: MPAESGKRFKPSKYVPVSAAAIFLVGATTLFFAFTCPGLSLYVSPAVPIYNAIMFLFVLANFSMATFMDPGIFPRAEEDEDKEDDFRAPLYKTVEIKGIQVRMKWCATCRFYRPPRCSHCSVCDNCVEEFDHHCPWVNNCIGRRNYRYFFLFLLSLTAHIMGVFGFGLLYVLYHIEELSGVRTAVTMAVMCVAGLFFIPVAGLTGFHVVLVARGRTTNEQVTGKFRGGVNPFTNGCCNNVSRVLCSSPAPRYLGRPKKEKTIVIRPPFLRPEVSDGQITVKIMDNGIQGELRRTKSKGSLEITESQSADAEPPPPPKPDLSRYTGLRTHLGLATNEDSSLLAKDSPPTPTMYKYRPGYSSSSTSAAMPHSSSAKLSRGDSLKEPTSIAESSRHPSYRSEPSLEPESFRSPTFGKSFHFDPLSSGSRSSSLKSAQGTGFELGQLQSIRSEGTTSTSYKSLANQTRNGSLSYDSLLTPSDSPDFESVQAGPEPDPPLGYTSPFLSARLAQQREAERHPRLVPTGPTHREPSPVRYDNLSRHIVASLQEREKLLRQSPPLPGREEEPGLGDSGIQSTPGSGHAPRTSSSSDDSKRSPLGKTPLGRPAVPRFGKPDGLRGRGVGSPEPGPTAPYLGRSMSYSSQKAQPGVSETEEVALQPLLTPKDEVQLKTTYSKSNGQPKSLGSASPGPGQPPLSSPTRGGVKKVSGVGGTTYEISV
partner: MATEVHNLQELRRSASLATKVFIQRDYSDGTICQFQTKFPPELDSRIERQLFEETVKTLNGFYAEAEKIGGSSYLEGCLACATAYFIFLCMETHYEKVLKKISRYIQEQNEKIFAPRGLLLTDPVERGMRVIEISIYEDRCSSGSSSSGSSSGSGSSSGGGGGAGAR
B2: Golgin subfamily A member 7B (Homo sapiens), Q2TAP0 (parent)
chain: B1 partner

Variants of B1 are the subject of assay [1]. The following applies: with gog7b_human GOLGA7B, Q2TAP0.
The variants in assay [2] derive from B1. To be noted: with gog7b_human GOLGA7B, Q2TAP0. This is another data set of the same source.
The variants in assay [3] derive from B2. To be noted: with zdhc5_human ZDHHC5, Q9C0B5.
Assay [4] covers variants of B2. The following applies: with zdhc5_human ZDHHC5, Q9C0B5. This is another data set of the same source.

With C236A;C237A;C245A, the “effect of a mutation on the interaction” value in assay [1] is given as “disrupting interaction strength”. For the variant C134S, the results for the “effect of a mutation on the interaction” value in assay [1] and in assay [2] were “with no effect” and “decreasing interaction strength”, respectively. Turning to MATEVHNLQELRRSASLATKVFIQRDYSDGTIAQFQTKFPPELDSRIERQLFEETVKTLNGFYAEAEKIGGSSYLEGALAAATAYFIFLAMETHYEKVLKKISRYIQEQNEKIFAPRGLLLTDPVERGMRVIEISIYEDRASSGSSSSGSSSGSGSSSGGGGGAGAR [C33A;C78A;C81A;C90A;C141A], the “effect of a mutation on the interaction” value in assay [3] is given as “with no effect”; in assay [4] it was “disrupting interaction strength”.
